# Assays:
# [1] = target: cynomolgus TIM-3 on isolated cyno CD14+ monocytes (cynomolgus); experiment: flow cytometry, cyno CD14+ monocytes cyno1
# [2] = target: cynomolgus TIM-3 on isolated cyno CD14+ monocytes (cynomolgus); experiment: flow cytometry, cyno CD14+ monocytes cyno2
# [3] = target: cynomolgus TIM-3 on isolated cyno CD14+ monocytes (cynomolgus); experiment: flow cytometry, cyno CD14+ monocytes cyno3
# [4] = target: human TIM-3 on cells (human) (UniProt Q8TDQ0); experiment: flow cytometry, human CD14+ monocytes donor1
# [5] = target: human TIM-3 on cells (human) (UniProt Q8TDQ0); experiment: flow cytometry, human CD14+ monocytes donor2
# [6] = target: human TIM-3 on cells (human) (UniProt Q8TDQ0); experiment: flow cytometry, human CD14+ monocytes donor3
# [7] = target: human TIM-3 on cells (human) (UniProt Q8TDQ0); experiment: FACS competition on RPMI-8226, competitor TIM3-0016
# [8] = target: human TIM-3 on cells (human) (UniProt Q8TDQ0); experiment: FACS competition on RPMI-8226, competitor TIM3-0018
# [9] = target: human TIM-3 on cells (human) (UniProt Q8TDQ0); experiment: FACS competition on RPMI-8226, competitor TIM3-0026
# [10] = target: human TIM-3 on cells (human) (UniProt Q8TDQ0); experiment: FACS competition on RPMI-8226, competitor TIM3-0038
# [11] = target: cynomolgus Tim3 (ELISA) (cynomolgus); experiment: ELISA, cyno Tim3
# [12] = target: Tim3-ECD-His-Biotin (human) (UniProt Q8TDQ0); experiment: ELISA, human Tim3
# [13] = target: human TIM-3 on cells (human) (UniProt Q8TDQ0); experiment: cell ELISA, CHO-Tim3
# [14] = target: human TIM-3 on cells (human) (UniProt Q8TDQ0); experiment: cell-based or functional assay
# [15] = target: huFc fused dimeric human Tim3-ECD (human) (UniProt Q8TDQ0); experiment: SPR Biacore, antibody captured by anti-mouse IgG
# [16] = target: monomeric cyno Tim3-ECD (cynomolgus); experiment: SPR Biacore, antibody captured by anti-mouse IgG
# [17] = target: monomeric human Tim3-ECD (human) (UniProt Q8TDQ0); experiment: SPR Biacore, antibody captured by anti-mouse IgG
# [18] = target: human TIM-3 on cells (human) (UniProt Q8TDQ0); experiment: FACS competition on RPMI-8226, competitor TIM3-0022
# [19] = target: human TIM-3 on cells (human) (UniProt Q8TDQ0); experiment: FACS competition on RPMI-8226, competitor TIM3-0028
# [20] = target: cynomolgus Tim3 (ELISA) (cynomolgus); experiment: ELISA, cyno Tim3; EC50 relative to the sample's max value
# [21] = target: Tim3-ECD-His-Biotin (human) (UniProt Q8TDQ0); experiment: ELISA, human Tim3; EC50 relative to the sample's max value
# [22] = target: human TIM-3 on cells (human) (UniProt Q8TDQ0); experiment: cell ELISA, CHO-Tim3; EC50 relative to the sample's max value
# Sequence of cynomolgus Tim3 (ELISA) (cynomolgus) (chain, as listed by the source, form in doubt): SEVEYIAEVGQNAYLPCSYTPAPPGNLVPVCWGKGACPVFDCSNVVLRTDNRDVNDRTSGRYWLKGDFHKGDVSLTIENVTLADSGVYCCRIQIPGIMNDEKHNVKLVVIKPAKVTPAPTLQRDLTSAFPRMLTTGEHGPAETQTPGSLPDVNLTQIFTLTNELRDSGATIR
# Sequence of monomeric cyno Tim3-ECD (cynomolgus) (chain, as listed by the source, form in doubt): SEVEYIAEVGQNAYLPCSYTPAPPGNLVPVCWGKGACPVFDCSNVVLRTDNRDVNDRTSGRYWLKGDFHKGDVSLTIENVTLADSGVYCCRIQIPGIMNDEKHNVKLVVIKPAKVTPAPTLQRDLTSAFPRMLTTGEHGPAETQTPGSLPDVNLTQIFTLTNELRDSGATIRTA
Substance,MFI [1],MFI [2],MFI [3],specific binding MFI [4],specific binding MFI [5],specific binding MFI [6],Max % inhibition of binding [7],Max % inhibition of binding [8],Max % inhibition of binding [9],Max % inhibition of binding [10],further results
M-IgG2b (isotype control) (antibody),–,–,–,0 MFI,13 MFI,0 MFI,–,–,–,–,–
Rat-IgG2A (isotype control) (antibody),84 MFI,86 MFI,91 MFI,71 MFI,68 MFI,70 MFI,–,–,–,–,–

# Further lines, with some results ahead:
MFI [1],MFI [2],MFI [3],specific binding MFI [4],specific binding MFI [5],specific binding MFI [6],Max % inhibition of binding [7],Max % inhibition of binding [8],Max % inhibition of binding [9],Max % inhibition of binding [10],Substance,further results
158 MFI,121 MFI,143 MFI,1010 MFI,917 MFI,814 MFI,0%,0%,3%,99%,anti-TIM3 reference antibody 344823 (R&D Systems),–
72 MFI,82 MFI,83 MFI,144 MFI,55 MFI,213 MFI,–,–,–,–,M-IgG1 (isotype control) (antibody),–
135 MFI,136 MFI,124 MFI,516 MFI,493 MFI,460 MFI,-7%,-6%,2%,94%,anti-TIM3 reference antibody F38-2E2 (BioLegend),"inflexion point [11]: 210000 ng/mL; inflexion point [12]: 86.3 ng/mL; inflexion point [13]: 224 ng/mL; IFN-gamma release in MLR at 1 µg/ml, % of IL-2 control [14]: 7%; IFN-gamma release in MLR at 10 µg/ml, % of IL-2 control [14]: 26%; IFN-gamma release in MLR at 40 µg/ml, % of IL-2 control [14]: 36%; Kd [15]: 0.0075 µM; Kd [16]: 0.168 µM; Kd [17]: 0.0136 µM; Max % inhibition of binding [18]: 77%; Max % inhibition of binding [19]: 75%; EC50 [20]: 0.423 mg/L; EC50 [21]: 0.0732 mg/L; EC50 [22]: 0.35 mg/L"

# From US20210087291A1
